The values that follow come from US20180105595A1.

The target of assay [1] is 2D8 scFv (anti-WTE)-CD8 hinge region-CD28a-CD28b-CD137-CD3ζ chimeric antigen receptor on T lymphocytes (human) (UniProt P01732). Description: cell-based or functional assay.
In the next assay the target is human EGFRvIII (human) (UniProt P00533). Nature of the assay: cell-based or functional assay.

Chain of UniProt P01732 (P01732 other isoform, or with tags, fused parts or gaps mutant limits assumed): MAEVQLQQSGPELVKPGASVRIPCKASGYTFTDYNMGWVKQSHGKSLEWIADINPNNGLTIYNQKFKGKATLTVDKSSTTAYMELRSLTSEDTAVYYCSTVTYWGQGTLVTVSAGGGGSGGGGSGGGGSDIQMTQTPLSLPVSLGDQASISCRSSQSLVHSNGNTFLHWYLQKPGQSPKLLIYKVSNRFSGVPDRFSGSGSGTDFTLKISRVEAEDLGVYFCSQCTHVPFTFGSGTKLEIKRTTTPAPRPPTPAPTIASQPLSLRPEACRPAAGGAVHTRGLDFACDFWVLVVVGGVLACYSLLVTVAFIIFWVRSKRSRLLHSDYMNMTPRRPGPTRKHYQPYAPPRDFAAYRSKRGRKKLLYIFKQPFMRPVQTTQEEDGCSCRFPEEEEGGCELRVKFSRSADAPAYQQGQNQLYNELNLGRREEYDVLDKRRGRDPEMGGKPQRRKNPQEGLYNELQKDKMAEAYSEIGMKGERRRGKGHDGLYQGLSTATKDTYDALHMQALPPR

In assay [1], “WTE polypeptide (free) (from UniProt P00533 1189-1210)” came in with a reduction of WTE-CH12-mediated cytotoxicity of CAR+ T cells on U87MG-EGFRvIII, free WTE polypeptide at 2-fold molar concentration of WTE-CH12, against Experimental group 1 of 31.1% and a reduction of WTE-CH12-mediated cytotoxicity of CAR+ T cells on U87MG-EGFRvIII, free WTE polypeptide at 20-fold molar concentration of WTE-CH12, against Experimental group 1 of 87.8%.

B1: anti-human EGFRvIII WTE-CH12 antibody (antibody, V domains shown)
VH: DVQLQESGPGLVKPSQSLSLTCTVTAYSVTSDYAWNWIRQFPGNKLEWMGYISYSGTTRYNPSLKSRISITRDTSKNQFFLQLNSMTAEDTATYYCSRQGRGFPYWGQGTLVTVSA
VL: DILMTQSPSSMSVSLGDTVSITCHASQDINSNIGWLQQKPGKSFKGLIYHGTNLEDGVPSRFSGSGSGADYSLTISSLESEDFADYYCVQYAQFPWTFGGGTKLEIKR
In the assay with human EGFRvIII (human), B1 gave a cytotoxicity % (LDH release) of anti-WTE CAR+ T cells on Huh-7-EGFRvIII cells at 10^4 ng/ml WTE-CH12, effector:target 3:1 of 93% and a cytotoxicity % (LDH release) of anti-WTE CAR+ T cells on U87MG-EGFRvIII cells at 10^4 ng/ml WTE-CH12, effector:target 10:1 of 98.3%.
